Residue numbers refer to the chain shown, from its start. Names may count otherwise.
B1: ADX_7016_E02 (L38T) (designed binder)
chain: MGVSDVPRDLEVVAATPTSLLISWDAPAVTVRYYRITYGREVQKYSDTGPLYIYQEFTVPGSKSTATISGLKPGVDYTITVYAVTGSGESPASSKPISINYRTEIDKPSQHHHHHH
notes: Full His6-tagged entry; also called 6727_E08
B2: ADX_7016_C03 (Y44Q) (designed binder)
chain: B1 chain with T48L, Y54Q
notes: Full His6-tagged entry; also called 6727_B03
B3: ADX_6727_B04 (Y35S/K85S) (designed binder)
chain: B1 chain with Y45S, T48L, K95S
notes: Full His6-tagged entry
B4: ADX_6727_B09 (L38T/K85T) (designed binder)
chain: B1 chain with K95T
notes: Full His6-tagged entry
B5: ADX_6727_G10 (Y35S/K85A) (designed binder)
chain: B1 chain with Y45S, T48L, K95A
notes: Full His6-tagged entry
B6: ADX_6727_G06 (Y35A/K85S) (designed binder)
chain: B1 chain with Y45A, T48L, K95S
notes: Full His6-tagged entry
B7: ADX_6727_G04 (Y44S/K85S) (designed binder)
chain: B1 chain with T48L, Y54S, K95S
notes: Full His6-tagged entry
B8: ADX_6727_H10 (L41S/K85S) (designed binder)
chain: B1 chain with T48L, L51S, K95S
notes: Full His6-tagged entry
B9: ADX_6727_D03 (L41S) (designed binder)
chain: B1 chain with T48L, L51S
notes: Full His6-tagged entry
B10: ADX_6727_H06 (Y44Q/K85T) (designed binder)
chain: B1 chain with T48L, Y54Q, K95T
notes: Full His6-tagged entry
B11: ADX_6727_H08 (L38T/K85T) (designed binder)
chain: B1 chain with K95T
notes: Full His6-tagged entry; Printed with the same substitutions as ADX_6727_B09

biological target: T1, human serum albumin (HSA), full length (human, UniProt P02768 25-609); assay: SPR kinetics, immobilized albumin, 1:1 fit, 37 C
T1 construct: mature; Immobilized on CM5 chip (SPR) or coated on plates (ELISA)
Procedure: (§1) The SPR was conducted as follows. Full length human, mouse, rat and cynomolgus monkey serum albumin were immobilized on a Biacore T series CM5 chip at 15 ug/mL in 10 mM acetate buffer (pH 5.0) buffer using standard NHS/EDC coupling, to a surface density of approximately 1000-1100 RU. For off-rate measurements at 25° C., PKE Adnectins were applied as analytes at 500 nM in HBS-P+(0.01 M HEPES pH 7.4, 0.15 M NaCl, 0.005% v/v Surfactant P20) running buffer at a flow rate of 20ul/min for 120 s over the immobilized albumins, followed by 800 s for dissociation. […] Regeneration of the chip surface between cycles was accomplished with two 30 second pulses of 10 mM Glycine, pH 2.0. Kinetic traces of reference-subtracted sensorgrams were fit to a 1:1 binding model for affinity using the Biaevaluation software. Only the dissociation phase was fit for determination of off-rates.

T1 sequence (P02768 25-609): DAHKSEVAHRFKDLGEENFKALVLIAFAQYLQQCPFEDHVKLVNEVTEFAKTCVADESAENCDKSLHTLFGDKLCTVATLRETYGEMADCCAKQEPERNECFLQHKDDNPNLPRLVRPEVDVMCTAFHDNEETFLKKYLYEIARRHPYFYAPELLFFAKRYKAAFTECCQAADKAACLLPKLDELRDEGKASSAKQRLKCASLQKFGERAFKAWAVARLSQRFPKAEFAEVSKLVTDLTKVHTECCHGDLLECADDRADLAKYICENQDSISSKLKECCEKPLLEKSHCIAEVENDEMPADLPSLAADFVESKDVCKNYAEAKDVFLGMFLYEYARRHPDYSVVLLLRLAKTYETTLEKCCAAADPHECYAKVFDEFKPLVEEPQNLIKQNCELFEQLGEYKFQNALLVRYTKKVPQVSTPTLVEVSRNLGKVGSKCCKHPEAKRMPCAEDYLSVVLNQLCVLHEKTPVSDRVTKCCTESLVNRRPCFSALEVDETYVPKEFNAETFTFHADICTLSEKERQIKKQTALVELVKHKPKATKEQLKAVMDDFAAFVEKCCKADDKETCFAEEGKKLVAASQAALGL

Row | Binder | Kd | koff | kon
1 | B1 | 0.666 µM | 0.0161 s⁻¹ | 24200 M⁻¹ s⁻¹
2 | B2 | 0.889 µM | 0.0285 s⁻¹ | 32100 M⁻¹ s⁻¹

biological target: T2, mouse serum albumin (MSA), full length (mouse, UniProt P07724 25-608); assay: SPR kinetics, immobilized albumin, 1:1 fit, 37 C
T2 construct: mature; Immobilized on CM5 chip (SPR) or coated on plates (ELISA); also called mouse albumin; murine serum albumin
Procedure: as §1

Row | Binder | Kd | koff | kon
3 | B1 | 0.502 µM | 0.0343 s⁻¹ | 68400 M⁻¹ s⁻¹
4 | B2 | 0.265 µM | 0.0305 s⁻¹ | 115000 M⁻¹ s⁻¹

biological target: T3, rat serum albumin (rat SA), full length (rat, UniProt P02770 25-608); assay: SPR kinetics, immobilized albumin, 1:1 fit, 37 C
T3 construct: mature; Immobilized on CM5 chip (SPR); also called RSA
Procedure: as §1

T3 sequence (P02770 25-608): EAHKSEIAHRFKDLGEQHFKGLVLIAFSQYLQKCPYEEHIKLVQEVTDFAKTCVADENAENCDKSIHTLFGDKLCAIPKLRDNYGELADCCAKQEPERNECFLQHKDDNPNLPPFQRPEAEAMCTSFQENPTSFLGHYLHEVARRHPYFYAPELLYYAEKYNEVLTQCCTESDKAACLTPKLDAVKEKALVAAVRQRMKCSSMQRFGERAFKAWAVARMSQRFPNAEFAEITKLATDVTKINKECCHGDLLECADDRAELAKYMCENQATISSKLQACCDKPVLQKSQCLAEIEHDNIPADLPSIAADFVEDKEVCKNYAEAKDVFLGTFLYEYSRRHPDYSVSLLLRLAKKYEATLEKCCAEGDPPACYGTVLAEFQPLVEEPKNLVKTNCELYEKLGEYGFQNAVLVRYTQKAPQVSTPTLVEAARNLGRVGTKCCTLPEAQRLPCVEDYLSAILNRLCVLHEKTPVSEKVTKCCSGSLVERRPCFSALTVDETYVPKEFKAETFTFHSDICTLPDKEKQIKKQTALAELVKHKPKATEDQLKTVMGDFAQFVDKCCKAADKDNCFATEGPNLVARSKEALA

Row | Binder | Kd | koff | kon
5 | B1 | 1.13 µM | 0.0558 s⁻¹ | 49400 M⁻¹ s⁻¹
6 | B2 | 1.34 µM | 0.119 s⁻¹ | 89100 M⁻¹ s⁻¹

biological target: T4, cynomolgus monkey serum albumin (cynoSA), full length (cynomolgus monkey, UniProt A2V9Z4 25-608); assay: SPR kinetics, immobilized albumin, 1:1 fit, 37 C
T4 construct: mature; Immobilized on CM5 chip (SPR); the cynoSA experiment used a different Biacore chip; also called CySA
Procedure: as §1

T4 sequence (A2V9Z4 25-608): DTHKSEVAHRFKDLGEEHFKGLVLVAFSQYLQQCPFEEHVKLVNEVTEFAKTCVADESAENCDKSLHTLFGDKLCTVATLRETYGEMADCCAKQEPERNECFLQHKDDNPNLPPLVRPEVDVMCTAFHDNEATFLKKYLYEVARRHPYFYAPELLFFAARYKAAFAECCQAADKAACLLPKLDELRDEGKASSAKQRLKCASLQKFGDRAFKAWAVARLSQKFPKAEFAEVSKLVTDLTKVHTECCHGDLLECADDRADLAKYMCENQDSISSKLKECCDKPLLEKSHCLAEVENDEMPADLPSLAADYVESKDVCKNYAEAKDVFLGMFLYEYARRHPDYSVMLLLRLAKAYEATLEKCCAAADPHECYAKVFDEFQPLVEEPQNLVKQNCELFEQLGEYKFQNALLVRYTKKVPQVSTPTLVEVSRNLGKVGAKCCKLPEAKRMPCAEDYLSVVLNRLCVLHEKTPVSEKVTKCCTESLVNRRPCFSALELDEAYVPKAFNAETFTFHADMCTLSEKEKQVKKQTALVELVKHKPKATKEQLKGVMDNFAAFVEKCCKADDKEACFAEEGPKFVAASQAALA

Row | Binder | Kd | koff | kon
7 | B1 | 1.43 µM | 0.171 s⁻¹ | 119000 M⁻¹ s⁻¹
8 | B2 | 1.08 µM | 0.0444 s⁻¹ | 41200 M⁻¹ s⁻¹

biological target: T2, mouse serum albumin (MSA), full length; assay: SPR off-rate, immobilized MSA, 500 nM Adnectin, 25 C
Procedure: as §1, with “Measurements were conducted by SPR and ELISA. SPR” for “The SPR”, “length HSA or mouse” for “length human, mouse, rat and cynomolgus monkey serum”, “albumin was” for “albumin were”

Row | Binder | koff
9 | B3 | 0.00142 s⁻¹
10 | B4 | 0.0262 s⁻¹
11 | B5 | 0.00138 s⁻¹

biological target: T2, mouse serum albumin (MSA), full length; assay: direct binding ELISA, coated MSA, anti-His-HRP; parameters: unit not given here
Procedure: (§2) Direct binding ELISA assays were conducted as follows. Full length human and murine serum albumin at 10ug/ml in PBS were coated on Nunc Maxisorp plates overnight at 4° C. Plates were blocked in casein/PBS buffer. PKE Adnectins were allowed to bind over a 4-point concentration range of 0.032-4 uM for HSA and 0.008-1 uM for MSA. Bound Adnectin was detected by anti-His antibody conjugated with HRP (horseradish peroxidase) diluted 1:1500 in casein/PBS. Plates were developed with TMB substrate and absorbance read at 450 nm. Adnectins were binned as high, medium and low affinity binders based on the observed Ymax of the concentration response curves.

Row | Binder | MSA DB ELISA (OD450) Ymax obs | MSA DB ELISA (OD450) Ymin obs
12 | B3 | 95 | 74
13 | B4 | 27 | 1
14 | B5 | 100 | 54

biological target: T1, human serum albumin (HSA), full length; assay: SPR off-rate, immobilized HSA, 500 nM Adnectin, 25 C
Procedure: as §1, with “Measurements were conducted by SPR and ELISA. SPR” for “The SPR”, “length HSA or mouse” for “length human, mouse, rat and cynomolgus monkey serum”, “albumin was” for “albumin were”

Row | Binder | koff
15 | B3 | 0.0011 s⁻¹
16 | B4 | 0.00921 s⁻¹
17 | B5 | 0.000892 s⁻¹

biological target: T1, human serum albumin (HSA), full length; assay: SPR, immobilized HSA, 500 nM Adnectin, 25 C
Procedure: as §1, with “Measurements were conducted by SPR and ELISA. SPR” for “The SPR”, “length HSA or mouse” for “length human, mouse, rat and cynomolgus monkey serum”, “albumin was” for “albumin were”

Row | Binder | HSA Binding (RU)
18 | B3 | 23 RU
19 | B6 | 26 RU
20 | B7 | 28 RU
21 | B1 | 25 RU
22 | B2 | 14 RU
23 | B8 | 19 RU
24 | B9 | 24 RU
25 | B5 | 27 RU
26 | B10 | 24 RU

biological target: T4, cynomolgus monkey serum albumin …; assay: SPR kinetics (Biacore, CM5): ligand '15ug/ml CynoSA in Acetate 5.0' immobilised, Adnectin concentration series as analyte, 37 C, 1:1 binding model; curve Fc=2-1 [panel Cyno SA]
Procedure: as §1

Row | Binder | Kd | koff | kon
27 | B1 | 1.43 µM | 0.171 s⁻¹ | 119000 M⁻¹ s⁻¹

biological target: T1, human serum albumin (HSA), full length; assay: direct binding ELISA, coated HSA, anti-His-HRP; parameters: unit not given here
Procedure: as §2

Row | Binder | HSA DB ELISA (OD450) Ymax obs | HSA DB ELISA (OD450) Ymin obs
28 | B3 | 99 | 62
29 | B4 | 16 | 2
30 | B5 | 96 | 54

biological target: T1, human serum albumin (HSA), full length; assay: SPR off-rate, immobilized HSA, 500 nM Adnectin, 25 C; remark: another data set of the same source
Procedure: as §1, with “Measurements were conducted by SPR and ELISA. SPR” for “The SPR”, “length HSA or mouse” for “length human, mouse, rat and cynomolgus monkey serum”, “albumin was” for “albumin were”

Row | Binder | koff
31 | B3 | 0.0011 s⁻¹
32 | B4 | 0.00921 s⁻¹
33 | B6 | 0.00105 s⁻¹
34 | B7 | 0.00177 s⁻¹
35 | B1 | 0.00815 s⁻¹
36 | B2 | 0.0214 s⁻¹
37 | B8 | 0.0086 s⁻¹
38 | B9 | 0.00777 s⁻¹
39 | B5 | 0.000892 s⁻¹
40 | B10 | 0.0142 s⁻¹
41 | B11 | 0.01 s⁻¹

biological target: T2, mouse serum albumin (MSA), full length; assay: SPR off-rate, immobilized MSA, 500 nM Adnectin, 25 C; remark: another data set of the same source
Procedure: as §1, with “Measurements were conducted by SPR and ELISA. SPR” for “The SPR”, “length HSA or mouse” for “length human, mouse, rat and cynomolgus monkey serum”, “albumin was” for “albumin were”

Row | Binder | koff
42 | B3 | 0.00142 s⁻¹
43 | B4 | 0.0262 s⁻¹
44 | B6 | 0.00143 s⁻¹
45 | B7 | 0.00259 s⁻¹
46 | B1 | 0.0248 s⁻¹
47 | B2 | 0.0179 s⁻¹
48 | B8 | 0.0146 s⁻¹
49 | B9 | 0.0134 s⁻¹
50 | B5 | 0.00138 s⁻¹
51 | B10 | 0.0143 s⁻¹
52 | B11 | 0.0284 s⁻¹

biological target: T2, mouse serum albumin (MSA), full length; assay: direct binding ELISA, coated MSA, anti-His-HRP; remark: another data set of the same source
Procedure: as §2

Row | Binder | MSA DB ELISA YMIN OBS (OD450)
53 | B4 | 1 OD450
54 | B1 | 1 OD450
55 | B2 | 1 OD450
56 | B8 | 1 OD450
57 | B9 | 1 OD450
58 | B10 | 1 OD450
59 | B11 | 1 OD450

biological target: T2, mouse serum albumin (MSA), full length; assay: SPR off-rate ratio to parent ADX_7016_A01, MSA, 25 C
Procedure: as §1, with “Measurements were conducted by SPR and ELISA. SPR” for “The SPR”, “length HSA or mouse” for “length human, mouse, rat and cynomolgus monkey serum”, “albumin was” for “albumin were”

Row | Binder | MSA kd/Parent kd
60 | B3 | 3.3
61 | B4 | 61.2
62 | B5 | 3.2

biological target: T1, human serum albumin (HSA), full length; assay: SPR off-rate ratio to parent ADX_7016_A01, HSA, 25 C
Procedure: as §1, with “Measurements were conducted by SPR and ELISA. SPR” for “The SPR”, “length HSA or mouse” for “length human, mouse, rat and cynomolgus monkey serum”, “albumin was” for “albumin were”

Row | Binder | HSA kd/Parent kd
63 | B3 | 4.1
64 | B4 | 34
65 | B5 | 3.3

biological target: T1, human serum albumin (HSA), full length; assay: as above; remark: another data set of the same source
Procedure: as §1, with “Measurements were conducted by SPR and ELISA. SPR” for “The SPR”, “length HSA or mouse” for “length human, mouse, rat and cynomolgus monkey serum”, “albumin was” for “albumin were”

Row | Binder | HSA kd/Parent kd
66 | B3 | 4.1
67 | B6 | 3.9
68 | B7 | 6.6
69 | B1 | 30.3
70 | B2 | 79.4
71 | B8 | 32
72 | B9 | 28.9
73 | B5 | 3.3
74 | B10 | 52.7

biological target: T2, mouse serum albumin (MSA), full length; assay: SPR, immobilized MSA, 500 nM Adnectin, 25 C
Procedure: as §1, with “Measurements were conducted by SPR and ELISA. SPR” for “The SPR”, “length HSA or mouse” for “length human, mouse, rat and cynomolgus monkey serum”, “albumin was” for “albumin were”

Row | Binder | MSA Binding (RU)
75 | B3 | 62 RU
76 | B6 | 66 RU
77 | B7 | 56 RU
78 | B1 | 30 RU
79 | B2 | 33 RU
80 | B8 | 35 RU
81 | B9 | 43 RU
82 | B5 | 63 RU
83 | B10 | 43 RU

biological target: T2, mouse serum albumin (MSA), full length; assay: SPR off-rate ratio to parent ADX_7016_A01, MSA, 25 C; remark: another data set of the same source
Procedure: as §1, with “Measurements were conducted by SPR and ELISA. SPR” for “The SPR”, “length HSA or mouse” for “length human, mouse, rat and cynomolgus monkey serum”, “albumin was” for “albumin were”

Row | Binder | MSA kd/Parent kd
84 | B3 | 3.3
85 | B6 | 3.3
86 | B7 | 6
87 | B1 | 57.8
88 | B2 | 41.9
89 | B8 | 34
90 | B9 | 31.3
91 | B5 | 3.2
92 | B10 | 33.5

biological target: T4, cynomolgus monkey serum albumin …; assay: SPR kinetics (Biacore, CM5): ligand '15ug/ml Cyno SA in Acetate 5.0' immobilised, Adnectin concentration series as analyte, 37 C, 1:1 binding fit; curve Fc=2-1 [panel Cyno SA]
Procedure: as §1

Row | Binder | Kd | koff | kon
93 | B2 | 1.08 µM | 0.0444 s⁻¹ | 41200 M⁻¹ s⁻¹

Reference: patent US20180258158A1 (Bristol-Myers Squibb, published 2018)
